In PMC4017094, “Mouse SLX4 Is a Tumor Suppressor that Stimulates the Activity of the Nuclease XPF-ERCC1 in DNA Crosslink Repair” (Molecular Cell, 2014):

Assays:
[1] = molecular target: T1, XPF-ERCC1 nuclease (XE), recombinant (UniProt Q9QZD4 1-917; P07903 1-298); test: SEC-MALS; light-scattering analysis of the purified SXE complex (Figure S1F); conditions: both partners purified
T1 construct: XPF, wild type; ERCC1; ERCC1 forms a doublet on the blot owing to a proteolytic site in the N terminus (about 2 kDa shift); also called WT XE; source: insect cells, purified (alone or in complex with mini-SLX4)
T1 sequence (looked up) 1: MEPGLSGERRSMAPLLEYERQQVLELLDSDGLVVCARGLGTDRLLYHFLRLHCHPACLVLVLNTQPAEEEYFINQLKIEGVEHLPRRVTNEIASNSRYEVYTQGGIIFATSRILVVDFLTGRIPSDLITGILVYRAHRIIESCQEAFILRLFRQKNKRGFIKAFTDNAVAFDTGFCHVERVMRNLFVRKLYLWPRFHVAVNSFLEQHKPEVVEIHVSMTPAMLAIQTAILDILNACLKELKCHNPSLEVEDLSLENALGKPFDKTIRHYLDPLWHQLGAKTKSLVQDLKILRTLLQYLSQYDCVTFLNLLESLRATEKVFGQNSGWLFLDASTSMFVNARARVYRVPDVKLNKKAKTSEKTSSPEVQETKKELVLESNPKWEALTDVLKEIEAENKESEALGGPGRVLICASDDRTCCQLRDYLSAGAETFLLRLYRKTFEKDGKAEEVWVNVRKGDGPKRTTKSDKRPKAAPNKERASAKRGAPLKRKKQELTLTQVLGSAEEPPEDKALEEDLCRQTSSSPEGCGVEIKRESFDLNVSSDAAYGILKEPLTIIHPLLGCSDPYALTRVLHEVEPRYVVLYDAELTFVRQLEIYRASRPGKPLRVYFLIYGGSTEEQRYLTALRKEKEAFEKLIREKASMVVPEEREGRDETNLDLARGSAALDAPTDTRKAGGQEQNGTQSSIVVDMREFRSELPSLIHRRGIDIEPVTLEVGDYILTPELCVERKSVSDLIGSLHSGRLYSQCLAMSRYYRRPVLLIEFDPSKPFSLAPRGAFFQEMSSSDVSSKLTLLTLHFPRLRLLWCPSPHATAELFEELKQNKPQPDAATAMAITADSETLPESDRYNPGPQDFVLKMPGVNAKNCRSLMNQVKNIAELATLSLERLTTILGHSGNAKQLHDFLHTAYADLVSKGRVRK
T1 sequence (looked up) 2: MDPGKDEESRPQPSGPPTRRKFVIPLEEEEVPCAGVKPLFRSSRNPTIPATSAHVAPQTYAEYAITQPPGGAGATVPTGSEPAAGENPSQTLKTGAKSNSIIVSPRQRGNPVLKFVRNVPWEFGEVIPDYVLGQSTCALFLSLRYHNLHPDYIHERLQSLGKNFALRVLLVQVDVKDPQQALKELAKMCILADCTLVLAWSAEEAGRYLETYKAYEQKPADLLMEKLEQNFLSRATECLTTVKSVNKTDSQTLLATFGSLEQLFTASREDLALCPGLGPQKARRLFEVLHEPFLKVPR

[2] = molecular target: T1, XPF-ERCC1 nuclease (XE), recombinant; test: cell-based or functional assay
[3] = molecular target: the molecule itself; test: SEC-MALS; light-scattering analysis of the purified SXE complex (Figure S1F)

B1: Recombinant mini-SLX4 (1-758) (domain or fragment, mouse, UniProt Q6P1D7 1-758, looked up)
chain: MVPESAPNGNSQPLPSCFTTTGVPSPSKPRVSELVLQRMKQFKRADPERLRHASEESPQKTALGDDVPRSPPEETVGENEYKLDATDSDAAMALALQQEFRREEASSHHDSLEEKGLFFCQMCQKNLSAMNVTRREQHVNRCLDEAEKAQRPASPRIPDCPICGKPFLTTKSRISHLKQCAVRMEVGPQLLLQAVRLQTAQPEVDGSPQVPSFSNNVGGLKRKGVTTKREPRRRKVNKPEAPSEDLLVAMALSRSEVEHCPVVPPLRLENAFSEKIRLGAEKKSRKKRPPVCPPQLVTQDSETTGRQIEDRVAQLLSEEAELSCTPPLLASKISKEELEPAGWRARLPEGKRNFLWELSALTGAWAEESFYTVGLFPPIVSQCPSKEPQLPLELPKQGEPSPRRPPASQSSLPVSHSPKIRLLSSSQRERQALQDLVDLAVEGLSSSPQPGSRGVPTGLDLVPSSLPLTGFVLPCKKTLKKDDSASLSLGLLVTDFGAMVNNPHLSDVQFQLDSGEVLYAHKFVLYARCPLLIQYVSTESFSSEEDGDLTQRALLSDVSSEAAHAFLNYLYMADTDMPPSLVPDLRSLALRFGVSDLVQLCEQVPAVVDLEGEQPEETSEDCESRAETFLELLRSVWVDNEEEVETLLKPELCEEERERVNEAEMEEIYEFAATQRKLLQWGRAADPDGSTNPHGEDGAVSEPSLAGVQSNRQLENTEHMESSGLEKEEALASWEQEGHSTPLQDQCPDWAGKAEAQD
notes: mouse SLX4, residues 1-758; source: insect cells, purified (in complex with XPF-ERCC1, or alone)
- stoichiometry N [1]: 1
- incision rate on the interstrand crosslink (ICL) fork substrate, SXE against XE (5 nM enzyme) [2]: 110 fold
- nuclease rate on the bubble substrate, SXE against XE (5 nM enzyme) [2]: 3.5 fold
- nuclease rate on the fork substrate Y11, SXE against XE (5 nM enzyme) [2]: 16 fold
- nuclease rate on the long stem-loop substrate, SXE against XE (5 nM enzyme) [2]: 3.7 fold

B2: mini-SLX4-XPF-ERCC1 (SXE) complex (complex)
chain 1: MVPESAPNGNSQPLPSCFTTTGVPSPSKPRVSELVLQRMKQFKRADPERLRHASEESPQKTALGDDVPRSPPEETVGENEYKLDATDSDAAMALALQQEFRREEASSHHDSLEEKGLFFCQMCQKNLSAMNVTRREQHVNRCLDEAEKAQRPASPRIPDCPICGKPFLTTKSRISHLKQCAVRMEVGPQLLLQAVRLQTAQPEVDGSPQVPSFSNNVGGLKRKGVTTKREPRRRKVNKPEAPSEDLLVAMALSRSEVEHCPVVPPLRLENAFSEKIRLGAEKKSRKKRPPVCPPQLVTQDSETTGRQIEDRVAQLLSEEAELSCTPPLLASKISKEELEPAGWRARLPEGKRNFLWELSALTGAWAEESFYTVGLFPPIVSQCPSKEPQLPLELPKQGEPSPRRPPASQSSLPVSHSPKIRLLSSSQRERQALQDLVDLAVEGLSSSPQPGSRGVPTGLDLVPSSLPLTGFVLPCKKTLKKDDSASLSLGLLVTDFGAMVNNPHLSDVQFQLDSGEVLYAHKFVLYARCPLLIQYVSTESFSSEEDGDLTQRALLSDVSSEAAHAFLNYLYMADTDMPPSLVPDLRSLALRFGVSDLVQLCEQVPAVVDLEGEQPEETSEDCESRAETFLELLRSVWVDNEEEVETLLKPELCEEERERVNEAEMEEIYEFAATQRKLLQWGRAADPDGSTNPHGEDGAVSEPSLAGVQSNRQLENTEHMESSGLEKEEALASWEQEGHSTPLQDQCPDWAGKAEAQD
chain 2: MEPGLSGERRSMAPLLEYERQQVLELLDSDGLVVCARGLGTDRLLYHFLRLHCHPACLVLVLNTQPAEEEYFINQLKIEGVEHLPRRVTNEIASNSRYEVYTQGGIIFATSRILVVDFLTGRIPSDLITGILVYRAHRIIESCQEAFILRLFRQKNKRGFIKAFTDNAVAFDTGFCHVERVMRNLFVRKLYLWPRFHVAVNSFLEQHKPEVVEIHVSMTPAMLAIQTAILDILNACLKELKCHNPSLEVEDLSLENALGKPFDKTIRHYLDPLWHQLGAKTKSLVQDLKILRTLLQYLSQYDCVTFLNLLESLRATEKVFGQNSGWLFLDASTSMFVNARARVYRVPDVKLNKKAKTSEKTSSPEVQETKKELVLESNPKWEALTDVLKEIEAENKESEALGGPGRVLICASDDRTCCQLRDYLSAGAETFLLRLYRKTFEKDGKAEEVWVNVRKGDGPKRTTKSDKRPKAAPNKERASAKRGAPLKRKKQELTLTQVLGSAEEPPEDKALEEDLCRQTSSSPEGCGVEIKRESFDLNVSSDAAYGILKEPLTIIHPLLGCSDPYALTRVLHEVEPRYVVLYDAELTFVRQLEIYRASRPGKPLRVYFLIYGGSTEEQRYLTALRKEKEAFEKLIREKASMVVPEEREGRDETNLDLARGSAALDAPTDTRKAGGQEQNGTQSSIVVDMREFRSELPSLIHRRGIDIEPVTLEVGDYILTPELCVERKSVSDLIGSLHSGRLYSQCLAMSRYYRRPVLLIEFDPSKPFSLAPRGAFFQEMSSSDVSSKLTLLTLHFPRLRLLWCPSPHATAELFEELKQNKPQPDAATAMAITADSETLPESDRYNPGPQDFVLKMPGVNAKNCRSLMNQVKNIAELATLSLERLTTILGHSGNAKQLHDFLHTAYADLVSKGRVRK
chain 3: MDPGKDEESRPQPSGPPTRRKFVIPLEEEEVPCAGVKPLFRSSRNPTIPATSAHVAPQTYAEYAITQPPGGAGATVPTGSEPAAGENPSQTLKTGAKSNSIIVSPRQRGNPVLKFVRNVPWEFGEVIPDYVLGQSTCALFLSLRYHNLHPDYIHERLQSLGKNFALRVLLVQVDVKDPQQALKELAKMCILADCTLVLAWSAEEAGRYLETYKAYEQKPADLLMEKLEQNFLSRATECLTTVKSVNKTDSQTLLATFGSLEQLFTASREDLALCPGLGPQKARRLFEVLHEPFLKVPR
notes: mouse SLX4, residues 1-758; XPF, wild type; ERCC1; 430 kDa by light scattering; also called WT SXE; source: insect cells, purified; copies: 2 + 2 + 2
- stoichiometry N [3]: 2
